Measured values published in patent US20190322748A1 (Hoffmann-La Roche, published 2019).

Tests used:
[1] = target: T1, full-length human Tim3 on cells (CHO-K1 stably transfected with plasmid 15312_hTIM3-fl_pUC_Neo) (human, UniProt Q8TDQ0 22-301); assay: cell-based or functional assay
[2] = target: T2, biotinylated PD1-ECD-AviHis (human, UniProt Q15116 25-170, biotinylated, site not stated); assay: ELISA on coated biotinylated PD1-ECD-AviHis
T2 construct: also called huPD1; hu PD1

[3] = target: T3, biotinylated TIM3-ECD-AviHis (human, UniProt Q8TDQ0 22-202, biotinylated, site not stated); assay: ELISA on coated biotinylated TIM3-ECD-AviHis
T3 construct: also called huTIM3; Hu TIM3

[4] = target: T1, full-length human Tim3 on cells (CHO-K1 …); assay: cell-based or functional assay; remark: listed apart in the source
human PD1-ECD = target: T4, human PD1-ECD (human, UniProt Q15116 25-170); assay: SPR Biacore T200, Ab captured on anti-human Fc IgG, hu PD1-ECD in solution, 25 C
T4 construct: SPR analyte; also called hu PD1-ECD

[5] = target: T5, Tim3-CLIP (on transiently transfected HEK293 cells) (human, CLIP-tag labelled with Clip-Red); assay: cell-based TR-FRET on SNAP-tagged PD1 / CLIP-tagged TIM3 HEK293 cells, 1 h at 4 C; half-maximal FRET, i.e. simultaneous binding of both receptors, not of one arm alone
T5 construct: The plasmid encodes residues 1-202 including the signal peptide; also called CLIP-tagged TIM3

[6] = target: T6, PD1-SNAP (on transiently transfected HEK293 cells) (human, SNAP-tag labelled with SNAP-Lumi4-Tb); assay: as above
T6 construct: also called SNAP-tagged PD1

[7] = target: full-length human PD1 on cells (CHO-K1 stably transfected with plasmid 15311_hPD1-fl_pUC_Neo) (human, UniProt Q15116 25-288); assay: cell-based or functional assay
monomeric human Tim3-ECD = target: T7, monomeric human Tim3-ECD (human, UniProt Q8TDQ0 22-202); assay: SPR Biacore T200, Ab captured on anti-human Fab IgG, hu Tim3-ECD in solution, 25 C
T7 construct: SPR analyte; also called huTim3; hu Tim3-ECD

Row | Binder | EC50 of IFN-g secretion/release in MLR, donors D1 + D5, with 0.1 µg/ml anti-PD1 mAb [1] | EC50 of IFN-g secretion/release in MLR, donors D2 + D3, with 0.1 µg/ml anti-PD1 mAb [1] | binding result [2] | EC50 [3] | EC50 of IFN-gamma secretion in MLR, donors D2 + D6 [4] | Kd (human PD1-ECD) | EC50 [2] | EC50 (read off the curve) [5] | EC50 (read off the curve) [6] | EC50 of IFN-gamma secretion in MLR, donors D2 + D6 [7] | Kd (monomeric human Tim3-ECD)
1 | Chimeric TIM3-0016 variant (0018) (antibody, human IgG1, V domains shown, also called Chimeric TIM3-0018) VH: QVTLKESGPGILQPSQTLSLTCSFSGFSLSTSGMSVGWIRQPSGKGLEWLAHIWLNDDVFFNPALKRRLTISKDTSNNQVFLQIASVVTADTATYYCVRANGYLYALDYWGQGISVTVSS VL: QIVLTQSPAIMSASPGQKVTITCSASSSVNYTQWYQQKLGSSPKLWIYDAFKLAPGVPARFSGSGTGTSYSLTISSMEAEDAASYFCHQWSSYPWTFGGGTKLEIK | 4.2 nM | 3.1 nM | no binding | 0.15 nM | > 274 nM |  |  |  |  |  | 
2 | 1+1 PD1TIM3_0168 (based on chimeric PD1-0103 / Tim3-0018) (bispecific antibody, human IgG1, kappa, L234A L235A, 1+1 CrossMAb Vh-VL: HC1/LC1 form the crossed PD1 arm, HC2/LC2 the TIM3 arm; knobs into holes) heavy 1: not shown heavy 2: QVTLKESGPGILQPSQTLSLTCSFSGFSLSTSGMSVGWIRQPSGKGLEWLAHIWLNDDVFFNPALKRRLTISKDTSNNQVFLQIASVVTADTATYYCVRANGYLYALDYWGQGISVTVSSASTKGPSVFPLAPSSKSTSGGTAALGCLVEDYFPEPVTVSWNSGALTSGVHTFPAVLQSSGLYSLSSVVTVPSSSLGTQTYICNVNHKPSNTKVDEKVEPKSCDKTHTCPPCPAPEAAGGPSVFLFPPKPKDTLMISRTPEVTCVVVDVSHEDPEVKFNWYVDGVEVHNAKTKPREEQYNSTYRVVSVLTVLHQDWLNGKEYKCKVSNKALGAPIEKTISKAKGQPREPQVCTLPPSRDELTKNQVSLSCAVKGFYPSDIAVEWESNGQPENNYKTTPPVLDSDGSFFLVSKLTVDKSRWQQGNVFSCSVMHEALHNRFTQKSLSLSPGK light 1: EVILVESGGGLVKPGGSLKLSCAASGFSFSSYTMSWVRQTPEKRLDWVATISGGGRDIYYPDSVKGRFTISRDNAKNTLYLEMSSLMSEDTALYYCVLLTGRVYFALDSWGQGTSVTVSSASVAAPSVFIFPPSDEQLKSGTASVVCLLNNFYPREAKVQWKVDNALQSGNSQESVTEQDSKDSTYSLSSTLTLSKADYEKHKVYACEVTHQGLSSPVTKSFNRGEC light 2: QIVLTQSPAIMSASPGQKVTITCSASSSVNYTQWYQQKLGSSPKLWIYDAFKLAPGVPARFSGSGTGTSYSLTISSMEAEDAASYFCHQWSSYPWTFGGGTKLEIKRTVAAPSVFIFPPSDRKLKSGTASVVCLLNNFYPREAKVQWKVDNALQSGNSQESVTEQDSKDSTYSLSSTLTLSKADYEKHKVYACEVTHQGLSSPVTKSFNRGEC |  |  |  | 0.41 nM |  | 1.2 nM | 0.11 nM | ~0.7 nM | ~0.7 nM | 4.3 nM | 10.3 nM
